Experimental data reported in patent US20200017592A1 (Regeneron, published 2020).
Residue numbers refer to the chain shown, from its start.

T1: human IL-36R extracellular domain expressed with a C-terminal mouse IgG2a Fc tag (hIL-36R-mFc) (human; mouse, UniProt Q9HB29 20-337)
T1 construct: not shown: mouse IgG2a Fc, E98-K330
T1 sequence (looked up): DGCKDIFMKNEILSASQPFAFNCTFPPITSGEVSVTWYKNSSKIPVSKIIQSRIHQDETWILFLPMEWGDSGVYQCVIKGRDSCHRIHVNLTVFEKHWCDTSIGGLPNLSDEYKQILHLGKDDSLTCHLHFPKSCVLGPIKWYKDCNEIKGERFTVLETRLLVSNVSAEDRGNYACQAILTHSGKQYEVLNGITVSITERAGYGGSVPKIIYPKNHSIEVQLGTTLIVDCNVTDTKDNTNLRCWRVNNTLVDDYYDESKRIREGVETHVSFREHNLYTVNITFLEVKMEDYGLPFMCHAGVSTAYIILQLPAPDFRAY

T2: in-line fusion protein of human IL-36R extracellular domain and IL1RAcP extracellular domain expressed with … (human; mouse, UniProt Q9HB29 20-337; Q9NPH3 21-359, limits assumed)
T2 construct: not shown: mouse IgG2a Fc
T2 sequence (looked up): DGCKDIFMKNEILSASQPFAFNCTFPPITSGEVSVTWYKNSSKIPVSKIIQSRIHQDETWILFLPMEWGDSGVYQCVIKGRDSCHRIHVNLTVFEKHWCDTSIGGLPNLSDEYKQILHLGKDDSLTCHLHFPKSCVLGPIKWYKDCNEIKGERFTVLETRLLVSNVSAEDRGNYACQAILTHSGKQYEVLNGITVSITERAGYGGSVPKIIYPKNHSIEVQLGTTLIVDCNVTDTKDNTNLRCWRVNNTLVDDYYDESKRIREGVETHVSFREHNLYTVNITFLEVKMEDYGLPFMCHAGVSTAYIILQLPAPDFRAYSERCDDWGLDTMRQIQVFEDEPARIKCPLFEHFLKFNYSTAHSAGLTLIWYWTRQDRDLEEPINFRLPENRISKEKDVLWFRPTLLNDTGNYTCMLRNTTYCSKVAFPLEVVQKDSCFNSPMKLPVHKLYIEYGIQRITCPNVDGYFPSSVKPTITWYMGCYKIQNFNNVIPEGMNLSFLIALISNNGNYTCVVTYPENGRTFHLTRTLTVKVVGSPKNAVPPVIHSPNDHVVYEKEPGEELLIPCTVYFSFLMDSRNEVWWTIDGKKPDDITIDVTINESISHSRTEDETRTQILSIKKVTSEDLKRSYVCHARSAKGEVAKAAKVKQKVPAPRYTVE

B1: H4H14699P2 (antibody, human IgG4 S228P, kappa, V domains shown)
VH: EVQLVESGGGLVQPGRSLRLSCAASGFTFDDYAIHWVRQAPGKGLEWVSVISWNSDIIGYADSVKGRFTVSRDNAKNSLYLQMNSLRTEDTALYYCAKGYNWNFFDYWGQGTLVTVSS
VL: EIVLTQSPATLSLSPGERATLSCRASQSVSSYLAWYQQKPGQAPRLLIYNAANRATDIPARFSGSGSGTDFTLTISSLEPEDFAVYYCQQRSNWPLTFGGGTKVEIKR
notes: Fully human anti-IL-36R antibody
B2: H4H14700P2 (antibody, human IgG4 S228P, kappa, V domains shown)
VH: B1 VH with I34M, A40T, I57V, G59A, A61S, V70I, R87G, Y100H
VL: B1 VL with A51V, S77G, Y87F
notes: as for B1
B3: H4H14706P2 (antibody, human IgG4 S228P, kappa, V domains shown)
VH: B1 VH with A23T, A40S, I57V, V70I, T88A
VL: B1 VL
notes: as for B1
B4: H4H14708P2 (antibody, human IgG4 S228P, kappa, V domains shown)
VH: B1 VH with G10D, I34M, I57V, G59A, A61S, V70I, A97T, Y100H, N101K, N103S
VL: B1 VL with V29I, Y49F, A51V
notes: as for B1

biological target: T3, human IL-36R extracellular domain expressed with a C-terminal myc-myc-hexahistidine tag (hIL-36R-MMH) (human, UniProt Q9HB29 20-337); assay: SPR Biacore T200, mAb captured on anti-hFc, 37C, PBS-T pH 7.4 running buffer
T3 construct: also called Human IL-36R-MMH; REGN2105
Description: (§1) Additional binding experiments were performed to determine the effect of pH on the rate of dissociation of IL-36R bound to purified anti-IL-36R antibodies, which was determined using a real-time surface plasmon resonance biosensor using a Biacore T200 instrument. The Biacore sensor surface was first derivatized by amine coupling with a monoclonal mouse anti-human Fc antibody (GE, # BR-1008-39) to capture anti-IL-36R antibodies. […] Different concentrations of hIL-36R-MMH and mfIL-36R-MMH prepared in PBS-T, pH7.4 buffer (ranging from 100 nM to 11.11 nM, 3-fold dilutions) were injected over the anti-IL-36R antibody captured surface for 4 minutes at a flow rate of 50 μL/minute and their dissociation in two running buffers, PBS-T, pH7.4 and PBS-T, pH 6.0, was monitored for 10 minutes. All of these binding kinetics experiments were performed at 25° C. and 37° C. Kinetic dissociation constant (kd) were determined by fitting the real-time sensorgrams to a 1:1 binding model using Scrubber 2.0c curve fitting software. Binding dissociative half-lives (t_{1/2}) were calculated from kd as: […]

T3 sequence (Q9HB29 other isoform, or with tags, fused parts or gaps limits assumed): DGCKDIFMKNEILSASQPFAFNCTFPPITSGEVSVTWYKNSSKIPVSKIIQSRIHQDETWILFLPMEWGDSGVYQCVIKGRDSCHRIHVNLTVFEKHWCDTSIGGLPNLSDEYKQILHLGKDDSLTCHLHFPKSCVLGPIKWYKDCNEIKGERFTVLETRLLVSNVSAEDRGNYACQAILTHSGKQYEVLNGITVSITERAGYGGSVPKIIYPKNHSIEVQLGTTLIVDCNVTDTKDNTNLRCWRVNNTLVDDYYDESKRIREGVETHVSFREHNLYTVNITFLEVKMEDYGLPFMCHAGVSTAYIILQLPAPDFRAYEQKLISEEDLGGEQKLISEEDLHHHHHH

Binder	100 nM hIL-36R-MMH Bound (RU)	koff [s⁻¹]	t1/2 [min]
B1	96	0.00415	3
B2	153	0.00169	7
B3	140	0.00131	9
B4	105	0.00177	7

biological target: T1, human IL-36R extracellular domain …; assay: SPR Biacore 4000, mAb captured on anti-hFc, 37C
Description: (§2) Equilibrium dissociation constants (KD values) for IL-36R binding to purified anti-IL-36R antibodies were determined using a real-time surface plasmon resonance biosensor using a Biacore 4000 instrument. The Biacore sensor surface was first derivatized by amine coupling with a monoclonal mouse anti-human Fc antibody (GE, # BR-1008-39) to capture anti-IL-36R monoclonal antibodies. All binding studies were performed in 0.01 M Hepes pH 7.4, 0.15 M NaCl, 3 mM EDTA, and 0.05% v/v Surfactant Tween-20 (HBS-ET running buffer) at 25° C. and 37° C. Different concentrations of IL-36R reagents, human IL-36R extracellular domain expressed with a C-terminal myc-myc-hexahistidine tag (hIL-36R-MMH), Macaca fascicularis IL-36R extracellular domain expressed with a C-terminal myc-myc-hexahistidine tag (mfIL-36R-MMH: mROR1 signal sequence (M1-A29). Macaca fascicularis IL36R_ecto domain (D20-A336).mycmycHis6), human IL-36R extracellular domain expressed with a C-terminal mouse IgG2a Fc tag (hIL-36R-mFc: mROR1 signal sequence (M1-A29)-human IL36R (D20-Y337)-mouse IgG2aFc (E98-K330)) or an in-line fusion protein of human IL-36R extracellular domain and IL1RAcP extracellular domain expressed with mouse IgG2a Fc tag (hIL-36R-Trap-mFc: mROR1 signal sequence (M1-A29)-human IL36R ecto domain (D20-Y337)-human IL1RacP ecto domain(S21-E359)-mouse IgG2aFc) in HBS-ET running buffer (ranging from 100 nM to 3.7 nM, 3-fold dilutions) were injected over the anti-IL-36R antibody captured surface for 4 minutes at a flow rate of 30 μL/minute and their dissociation in HBS-ET running buffer was monitored for 10 minutes. Kinetic association rate constant (kₐ) and dissociation rate constant (kd) were determined by fitting the real-time sensorgrams to a 1:1 binding model using Scrubber 2.0c curve fitting software. Binding dissociation equilibrium constants (KD) and dissociative half-lives (t_{1/2}) were calculated from the kinetic rate constants as: […]

Binder	100 nM hIL-36R-mFc Bound (RU)	Kd [pM]	koff [s⁻¹]	kon [M⁻¹ s⁻¹]	t1/2 [min]
B1	186	767	0.000456	594000	25
B2	174	390	0.000209	535000	55
B3	207	449	0.000266	593000	43
B4	203	435	0.0002	460000	58

biological target: T2, in-line fusion protein of human IL-36R …; assay: SPR Biacore 4000, mAb captured on anti-hFc, 37C
Description: as §2

Binder	100 nM hIL-36R-Trap-mFc Bound (RU)	Kd [pM]	koff [s⁻¹]	kon [M⁻¹ s⁻¹]	t1/2 [min]
B1	229	1060	0.000513	484000	23
B2	216	555	0.000253	455000	46
B3	264	551	0.000271	491000	43
B4	239	656	0.000253	385000	46

biological target: T3, human IL-36R extracellular domain …; assay: SPR Biacore T200, mAb captured on anti-hFc, 37C, PBS-T pH 6.0 running buffer
Description: as §1

Binder	100 nM hIL-36R-MMH Bound (RU)	koff [s⁻¹]	t1/2 [min]
B1	83	0.00581	2
B2	144	0.0035	3
B3	132	0.00233	5
B4	95	0.00337	3

biological target: T3, human IL-36R extracellular domain …; assay: SPR Biacore T200, mAb captured on anti-hFc, 25C, PBS-T pH 7.4 running buffer
Description: as §1

Binder	100 nM Human IL-36R-MMH Bound (RU)	koff [s⁻¹]	t1/2 [min]
B1	84	0.00193	6
B2	128	0.000795	15
B3	119	0.000616	19
B4	87	0.000796	15

biological target: T3, human IL-36R extracellular domain …; assay: SPR Biacore T200, mAb captured on anti-hFc, 25C, PBS-T pH 6.0 running buffer
Description: as §1

Binder	100 nM Human IL-36R-MMH Bound (RU)	koff [s⁻¹]	t1/2 [min]
B1	79	0.00293	4
B2	120	0.00172	7
B3	109	0.000927	12
B4	79	0.00163	7

biological target: T1, human IL-36R extracellular domain …; assay: SPR Biacore 4000, mAb captured on anti-hFc, 25C
Description: as §2

Binder	100 nM hIL-36R-mFc Bound (RU)	Kd [pM]	koff [s⁻¹]	kon [M⁻¹ s⁻¹]	t1/2 [min]
B1	150	359	0.000203	564000	57
B2	128	233	0.00012	517000	96
B3	163	230	0.000132	575000	87
B4	146	317	0.000128	403000	90

biological target: T2, in-line fusion protein of human IL-36R …; assay: SPR Biacore 4000, mAb captured on anti-hFc, 25C
Description: as §2

Binder	100 nM hIL-36R-Trap-mFc Bound (RU)	Kd [pM]	koff [s⁻¹]	kon [M⁻¹ s⁻¹]	t1/2 [min]
B1	188	458	0.000228	498000	51
B2	157	283	0.000125	442000	92
B3	205	232	0.00011	477000	105
B4	172	357	0.000129	361000	90
